Source: paper PMC2944805, “A Major Determinant of Cyclophilin Dependence and Cyclosporine Susceptibility of Hepatitis C Virus Identified by a Genetic Approach” (PLoS Pathogens, 2010)

Molecular target: T1, 15N-labeled human CyPA (human, UniProt P62937 1-165, 15N-labeled)
T1 construct: human cyclophilin A (CyPA); also called cyclophilin A
Assay: NMR titration; peptide added stepwise to 15N-labeled CyPA (~0.5 mM); 2D 1H,15N-HSQC, 22°C; 50 mM NaH2PO4/Na2PO4, pH 6.3, 40 mM NaCl, 2 mM EDTA, 1 mM DTT
Conditions: both partners purified

B1: synthetic WT peptide, residues 304-323 of NS5A (peptide)
peptide: GFPRALPAWARPDYNPPLVE
notes: residues 304-323 of NS5A of HCV JFH-1 (genotype 2a); numbers count on: NS5A itself, not the polyprotein; also called 20-mer peptide (G304-E323); source: synthetic peptide, bought: NEO BioScience
- binding result: binds
